Assay results: US20200223906A1 (Adimab, published 2020)

Assays:
[1] = target: RSV F protein of subtype A (strain A2) on recombinant mKate-RSV virus (Respiratory syncytial virus subtype A …, UniProt P03420 26-574); assay: cell-based or functional assay
[2] = target: RSV F protein of subtype B (18537) on recombinant mKate-RSV virus (Respiratory syncytial virus subtype B …, UniProt P13843 26-574); assay: cell-based or functional assay
[3] = target: T1, RSV F subtype B, furin-cleaved ectodomain stabilized in the postfusion conformation (F ΔFP) (Respiratory syncytial virus subtype B); assay: BLI, IgG on AHQ sensor, 100 nM antigen
T1 construct: extracellular domain; Trimeric soluble antigen; also called Postfusion subtype B

[4] = target: T2, RSV F subtype B, furin-cleaved ectodomain stabilized in the prefusion conformation (DS-Cav1) (Respiratory syncytial virus subtype B); assay: BLI, IgG on AHQ sensor, 100 nM antigen
T2 construct: extracellular domain; Trimeric soluble antigen; also called Prefusion subtype B

B1: ADI-18950 (antibody, V domains shown)
VH: EVQLVESGPRLVRPSETLSLTCTVSGGFIKTSSYYWGWIRQPPGKGLEWIGSIYYAGTTYYNPSLQSRVTMSVDTSNNQFSLKLNSVTAADTAVYYCATAWTFDHWGQGTLVTVSS
VL: EIVLTQSPATLSLSPGERATLSCRASQSLSNYLAWYQQKPGQAPRLLIYDASNRATGIPARFSGSGSGTDFTLTISSLEPEDFAVYYCQLRGHWPPTITFGQGTRLEIK
notes: full-length IgG from yeast
- Neut IC50 (µg/ml) subtype A [1]: > 10 µg/mL
- Neut IC50 (µg/ml) subtype B [2]: > 10 µg/mL
- Kd [3]: 0.385 nM
- Kd [4]: 4.18 nM

B2: ADI-18951 (antibody, V domains shown)
VH: QVQLVQSGGGLVQPGGSLRLSCAASGFAFSDYTMSWVRQAPGKGLEWVSSVSGTGGTSYYADSVNGRFAISRENSKNTLFLQMDSLRAEDTATYYCAKDGLRDVSRVYYIDVWGKGTTVTVSS
VL: QPVLTQPASVSGSPGQSITISCTGTSRDIGSHDSVSWYQQKPGKAPKLIIYAVRNRPSGLSNRFSGSKSGNTASLTISGLQTEDEGDYYCSSYRNGNALGVFGTGTKVTVL
notes: full-length IgG from yeast
- Neut IC50 (µg/ml) subtype A [1]: 3.4 µg/mL
- Neut IC50 (µg/ml) subtype B [2]: > 10 µg/mL
- Kd [3]: 1.13 nM
- Kd [4]: 5.35 nM

B3: ADI-18952 (antibody, V domains shown)
VH: QVQLVESGGGLVQPGGSLRLSCAASGFAFSNYAMSWVRQAPGKGLEWVSSVSGTGGTTYYADSVNGRFAISRENSRNTLYLQMDSLRVEDTATYYCAKDGLRDLSRVYYIDVWGKGATVTVSS
VL: QSVLTQPASVSGSPGQSITISCTGTSRDIGSHDYVSWYQQHPGKAPKLIIYGVNNRPSGLSNRFSGSKSGNTASLTISGLQTEDEGDYYCSSYRNGNTLGVFGTGTKLTVL
notes: full-length IgG from yeast
- Neut IC50 (µg/ml) subtype A [1]: 1.59 µg/mL
- Neut IC50 (µg/ml) subtype B [2]: 2.75 µg/mL
- Kd [3]: 0.633 nM
- Kd [4]: 1.01 nM

B4: ADI-18970 (antibody, V domains shown)
VH: QVQLQESGPRLVKPSQTLSLTCTVSGGSISSGDYYWSWIRQPPGKGLEWIGYIYYSGSTHYNPSLKSRVSMSVDTAKNQFSLKLTSVTAADTAVYYCARDIGYGDHGTGSYYYGIEDWGQGTTVTVSS
VL: DIVMTQTPATLSLSPGDRATLSCRASQNIMSYLAWYQHKPGQPPRLLIYDASYRAAGIPARFSGSGSGTDFTLTISSLEPEDFAVYYCQQRTNWITFGQGTRLEIK
notes: full-length IgG from yeast; also called Antibody Number 318; Ab # 318
- Neut IC50 (µg/ml) subtype A [1]: > 10 µg/mL
- Neut IC50 (µg/ml) subtype B [2]: 0.333 µg/mL
- Kd [3]: 0.412 nM
- Kd [4]: 0.445 nM

B5: ADI-18973 (antibody, V domains shown)
VH: QVQLVQSGPALVKPTQTLTLTCTFGGFSLSRHGMRVTWIRQAPGKALEWLGHIDWDDDKFYRTSLKTRLTISKDPSNNEVVLKMTNMDHVDTATYYCALMRPFWSRDDYYYSIAVWGKGTTVTVSS
VL: DIVLTQSPGTLSLSPGDRATLSCRASQSVGSGYVTWYQQKPGQAPRLLIYGASNRAEGIPDRFSGSGSGTDFTLTISGLESEDFVIYYCQLYHRSPGSASQTVWTFGQGTKVEIK
notes: full-length IgG from yeast
- Neut IC50 (µg/ml) subtype A [1]: 9.61 µg/mL
- Neut IC50 (µg/ml) subtype B [2]: 6.27 µg/mL
- Kd [3]: 0.394 nM
- Kd [4]: 2.63 nM

B6: ADI-18976 (antibody, V domains shown)
VH: EVQLVETGPGLVKPSETLSLTCTVSGDSISGYYWSWIRQSPGKGLEWIGYIYYRGSTDYNPSLKSRVTISVDTSKNQFSLKLSSVTAADTAVYYCARDNKHHDSGNYYAYFDHWGQGTLVTVSS
VL: DIVMTQSPSSLSASVGDRVTITCRASQNINTFLNWYQHKPGKAPKLLIYGASRLQSGVPSRFTGSGSGTDFTLTISSLQPEDFATYSCQQSYTTRLTFGGGTKVEIK
notes: full-length IgG from yeast
- Neut IC50 (µg/ml) subtype A [1]: 6.29 µg/mL
- Neut IC50 (µg/ml) subtype B [2]: 10.6 µg/mL
- Kd [3]: 0.209 nM
- Kd [4]: 1.24 nM

B7: ADI-18885 (antibody, V domains shown)
VH: EVQLQESGPGLVKPLQTLSVTCSVSGGSISSGDNYWSWIRQRPGKGLEWIGYIYYSGTTYYNPSLKSRVTISADRSKNQFSLKMNSLSAADTAVYYCARDGGYDHIWGTHRYFALWGQGTLVTVSS
VL: ETTLTQSPGTLSLSPGERATLSCRASQSVNSDYLAWYQQKLGQAPRLLIYGVSNRATGIPDRFTGSGSGTDFTLTISRLEPEDFAVYHCQQYGTSPWTFGQGTKVEIK
notes: full-length IgG from yeast; also called Antibody Number 241; Ab # 241
- Neut IC50 (µg/ml) subtype A [1]: 0.376 µg/mL
- Neut IC50 (µg/ml) subtype B [2]: 8.63 µg/mL
- Kd [3]: 0.307 nM
- Kd [4]: 3.89 nM
